Target: T1, GST-zyxin(1-142) (UniProt Q15942 1-142)
T1 construct: Expressed in E. coli; also called zyxin derivative; GST fusion protein with the N-terminus of zyxin; not shown: glutathione S-transferase
T1 sequence (looked up): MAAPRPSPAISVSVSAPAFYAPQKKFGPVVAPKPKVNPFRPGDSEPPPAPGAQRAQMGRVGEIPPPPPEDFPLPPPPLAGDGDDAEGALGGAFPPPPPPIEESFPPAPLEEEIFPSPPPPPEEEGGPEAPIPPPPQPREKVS
Test: solid-phase assay (DELFIA) in 384-well plates, 20 µl per well, GST-zyxin(1-142) coated, VASP as ligand
Method: In the solid-phase assay, a binding partner (VASP or zyxin) was immobilized on the surface of a microtiter plate (MTP) (=coating). The unsaturated binding sites on the surface of the plastic were blocked, and the surface was then incubated with the respective other binding partners. After the incubation, excess unattached protein was removed in a washing step. Using suitable antibodies, it was now possible to detect and quantify the specifically bound protein. Here, it was possible to improve the signal-noise (S/N) ratio considerably by using lanthanide chelates as fluorescent labels for the antibodies and the measurement of the time-resolved fluorescence.
The volume per well used depended on the selected MTP format (50 µl or 100 µl for 96-well plates, 20 µl for 384-well plates).

B1: recombinant human VASP protein with complete amino acid sequence obtained from insect cells (other, UniProt P50552 2-380, looked up)
chain: SETVICSSRATVMLYDDGNKRWLPAGTGPQAFSRVQIYHNPTANSFRVVGRKMQPDQQVVINCAIVRGVKYNQATPNFHQWRDARQVWGLNFGSKEDAAQFAAGMASALEALEGGGPPPPPALPTWSVPNGPSPEEVEQQKRQQPGPSEHIERRVSNAGGPPAPPAGGPPPPPGPPPPPGPPPPPGLPPSGVPAAAHGAGGGPPPAPPLPAAQGPGGGGAGAPGLAAAIAGAKLRKVSKQEEASGGPTAPKAESGRSGGGGLMEEMNAMLARRRKATQVGEKTPKDESANQEEPEARVPAQSESVRRPWEKNSTTLPRMKSSSSVTTSETQPCTPSSSDYSDLQRVKQELLEEVKKELQKVKEEIIEAFVQELRKRGSP
notes: mature; also called baculo VASP; vasodilator-stimulated phosphoprotein
S/N ratio: ~100
